From article PMC4266902, “Néstor-Guillermo Progeria Syndrome: a biochemical insight into Barrier-to-Autointegration Factor 1, alanine 12 threonine mutation” (BMC Molecular Biology, 2014)

Columns and labels:
[1] = biological target: the molecule itself; experiment: SEC; gel filtration of recombinant HexaHis BANF1, absorbance at 280 nm against elution volume; column calibrated with carbonic anhydrase (29 kDa) and myoglobin (17 kDa)
BANF1 WT = biological target: T1, BANF1 WT (UniProt O75531 1-89); experiment: EMSA; 0-1 uM protein, 10 nM DNA, 30 min 4 C; 10 mM Tris-HCl pH 7.0, 20 mM NaCl, 100 ng/mL BSA, 5 mM DTT, 30 min at 4 C; 7% PAGE 0.5x TBE at 4 C (short DNA) or 0.6% agarose 1x TBE (plasmid); conditions: protein: recombinant; tags: N-terminal His6; label: 5'-FAM on strand 1; blunt
T1 sequence: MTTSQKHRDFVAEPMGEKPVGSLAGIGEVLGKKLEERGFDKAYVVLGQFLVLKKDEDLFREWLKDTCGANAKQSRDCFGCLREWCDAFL

B1: recombinant HexaHis-tagged wild type BANF1 (Barrier-to-Autointegration Factor 1) (natural protein, human, UniProt O75531 1-89, looked up)
chain: MTTSQKHRDFVAEPMGEKPVGSLAGIGEVLGKKLEERGFDKAYVVLGQFLVLKKDEDLFREWLKDTCGANAKQSRDCFGCLREWCDAFL
notes: Barrier-to-Autointegration Factor 1 (BANF1, BAF1), human, 89 amino acid residues; BANF1 CDS sub-cloned into pEX-N-His (Origene); also called BANF1 WT; WT BANF1; not shown: His6, N-terminal, kept
stoichiometry N [1]: 2

B2: recombinant HexaHis-tagged A12T BANF1 (natural protein, human, UniProt O75531 1-89, looked up)
chain: MTTSQKHRDFVTEPMGEKPVGSLAGIGEVLGKKLEERGFDKAYVVLGQFLVLKKDEDLFREWLKDTCGANAKQSRDCFGCLREWCDAFL
notes: Barrier-to-Autointegration Factor 1 (BANF1, BAF1), human, 89 amino acid residues; BANF1 CDS in pEX-N-His (Origene) with the patient mutation c.34G>A [p.A12T] made by site-directed mutagenesis; A12T is the mutation found in patients with Nestor-Guillermo Progeria Syndrome; also called BANF1 A12T; A12T mutant; not shown: His6, N-terminal, kept
stoichiometry N [1]: 2

B3: FAM-labelled short dsDNA (dsDNA)
DNA 1: CTCTCCCTTCGCTCCTTTCCTCT
DNA 2: AGAGGAAAGGAGCGAAGGGAGAG
binding result (BANF1 WT): binds
